Where two headings read alike, the source gives them in different places.
Tested on: SULT2A1
Assay: SULT2A1 enzyme activity assay: sulfate conjugation of DHEA with 35S-PAPS, COS-1 cytosol preparations of recombinant allozymes
Type: biochemical, human
Settings: for Enzyme Activity (%): percentage of WT SULT2A1 enzyme activity, 5 μM DHEA, 0.4 μM 35S-PAPS, COS-1 cytosol, corrected for transfection efficiency; for Enzyme activity: immunoreactive protein: ratio of enzymatic activity to immunoreactive protein; for decrease in enzyme activity: reduction relative to wild type
Experimental: Activity of SULT2A1 polypeptides can be altered relative to the reference SULT2A1 polypeptide. […] Other allozymes can have increased activity relative to the reference SULT2A1 polypeptide. Activity of SULT2A1 polypeptides can be assessed in vitro using a sulfate acceptor substrate such as DHEA and a donor sulfate molecule such as PAPS. In general, recombinant SULT2A1 polypeptides can be incubated at 37° C. with 0.4 μM ^35S-PAPS and 5 μM DHEA in a potassium phosphate buffer (5 mM, pH 6.5). Reactions can be stopped by precipitating PAPS and SULT2A1 polypeptide (e.g., with barium hydroxide, barium acetate, and zinc sulfate). After centrifugation of the reaction, radioactivity in the supernatant is assessed. SULT2A1 activity is expressed as nmoles of sulfate conjugated product formed per hour of incubation. See, Campbell, N. R. C. et al., Biochem. Pharmacol., 36:1435-1446 (1987).
COS-1 cell expression: Five different SULT2A1 expression constructs were made using the pCR3.1 expression vector. Four of the constructs were designed to express SULT2A1 allozymes, while the remaining construct was designed to express a wild type SULT2A1 polypeptide. All SULT2A1 cDNA sequences containing SULT2A1 nucleotide sequence variants used to create the expression constructs were created by site directed mutagenesis using the method described by Ho et al., Gene 77(1):51-9 (1989). Each SULT2A1 cDNA was amplified by PCR and subcloned into the eukaryotic expression vector pCR3.1 (Promega, Madison, Wis.). After subcloning, all inserts were sequenced to assure that no spurious nucleotide point mutations had been introduced during the PCR amplifications. […] As a control, a transfection was also performed with “empty” pCR3.1, i.e., vector lacking an insert, to make it possible to correct for endogenous COS-1 cell SULT activity. The control plasmid pSV-β-galactosidase (Promega) was cotransfected with each SULT2A1 construct to make it possible to correct for transfection efficiency. Two independent transfections, each consisting of three separate plates, were performed with each of the expression constructs.
After 48 hours in culture, the transfected cells were harvested and high speed supernatant (HSS) cytosol preparations were prepared as described by Wood, T. C. et al., Biochem. Biophys. Res. Commun., 198:1119-1127 (1994). Aliquots of these cytosol preparations were stored at −80° C. prior to assay.
Enzyme Assays: β-galactosidase activity in each of the COS-1 HSS preparations was measured with the β-galactosidase Enzyme Assay System (Promega, Madison, Wis.). These HSS preparations of recombinant SULT2A1 allozymes were used for the activity studies without any further purification. The protein concentration of each recombinant protein preparation was determined by the dye-binding method of Bradford with bovine serum albumin (BSA) as a standard.
SULT2A1 enzyme activity was measured with an assay that involves sulfate conjugation of a sulfate acceptor substrate, DHEA, in the presence of the sulfate donor 3′-phosphoadenosine-5′-phosphosulfate (PAPS). See, Campbell, N. R. C. et al., Biochem. Pharmacol., 36:1435-1446 (1987). Briefly, 0.4 μM ^35S-PAPS and a HSS preparation were reacted with 5 μM DHEA in 5 mM potassium phosphate buffer at pH 6.5. […] Cytosol from COS-1 cells that had been transfected with empty pCR3.1 was used to correct for endogenous SULT activity. Because SULTs display profound substrate inhibition, DHEA concentrations that ranged from 100 pM to 1 mM were tested with each recombinant allozyme to ensure that the assays were performed at DHEA concentrations that yielded maximal activity for that allozyme. Enzyme activity was expressed as nanomoles (nmoles) of sulfate conjugated product formed per hour of incubation. Apparent Km values for PAPS were determined in the presence of 5 μM DHEA with six PAPS concentrations that varied from 0.0625 μM to 2 μM. […]

[1] = apparent Km for DHEA, read-out: DHEA Km
[2] = apparent Km for PAPS in the presence of 5 μM DHEA, read-out: PAPS Km

| Molecule | activity relative to the reference SULT2A1 polypeptide (in words) | Km [1] | Km [2] | Enzyme Activity (%) | Enzyme activity: immunoreactive protein | decrease in enzyme activity |
| --- | --- | --- | --- | --- | --- | --- |
| Ala261Thr: SULT2A1 allozyme having a threonine at amino acid 261 in place of an alanine (protein) MSDDFLWFEGIAFPTMGFRSETLRKVRDEFVIRDEDVIILTYPKSGTNWLAEILCLMHSKGDAKWIQSVPIWERSPWVESEIGYTALSESESPRLFSSHLPIQLFPKSFFSSKAKVIYLMRNPRDVLVSGYFFWKNMKFIKKPKSWEEYFEWFCQGTVLYGSWFDHIHGWMPMREEKNFLLLSYEELKQDTGRTIEKICQFLGKTLEPEELNLILKNSSFQSMKENKMSNYSLLSVDYVVDKAQLLRKGVSGDWKNHFTVTQAEDFDKLFQEKMADLPRELFPWE | comparable to the reference SULT2A1 polypeptide | 0.245 ± 0.012 µM | 0.0227 ± 0.00062 µM | – | 1.2 | 85% |
| WT: recombinant wild type (reference) human SULT2A1 polypeptide, SEQ ID NO:3, expressed in COS-1 cells (protein, listed as Homo Sapiens) MSDDFLWFEGIAFPTMGFRSETLRKVRDEFVIRDEDVIILTYPKSGTNWLAEILCLMHSKGDAKWIQSVPIWERSPWVESEIGYTALSESESPRLFSSHLPIQLFPKSFFSSKAKVIYLMRNPRDVLVSGYFFWKNMKFIKKPKSWEEYFEWFCQGTVLYGSWFDHIHGWMPMREEKNFLLLSYEELKQDTGRTIEKICQFLGKTLEPEELNLILKNSSFQSMKENKMSNYSLLSVDYVVDKAQLLRKGVSGDWKNHFTVAQAEDFDKLFQEKMADLPRELFPWE | – | 0.247 ± 0.071 µM | 0.0218 ± 0.00086 µM | 100% | 1.0 | – |
| 63Pro/261Thr: SULT2A1 polypeptide with a proline at position 63 and a threonine at position 261 (double variant) (protein, UniProt Q06520 1-285, looked up, variant A63P A261T) Sulfotransferase 2A1: MSDDFLWFEGIAFPTMGFRSETLRKVRDEFVIRDEDVIILTYPKSGTNWLAEILCLMHSKGDPKWIQSVPIWERSPWVESEIGYTALSETESPRLFSSHLPIQLFPKSFFSSKAKVIYLMRNPRDVLVSGYFFWKNMKFIKKPKSWEEYFEWFCQGTVLYGSWFDHIHGWMPMREEKNFLLLSYEELKQDTGRTIEKICQFLGKTLEPEELNLILKNSSFQSMKENKMSNYSLLSVDYVVDKAQLLRKGVSGDWKNHFTVTQAEDFDKLFQEKMADLPRELFPWE | reduced activity | 0.29 ± 0.012 µM | 0.0114 ± 0.0003 µM | 42% | 1.6 | – |

Second part, led by results:

| activity relative to the reference SULT2A1 polypeptide (in words) | Molecule | Km [1] | Km [2] | Enzyme Activity (%) | Enzyme activity: immunoreactive protein | decrease in enzyme activity |
| --- | --- | --- | --- | --- | --- | --- |
| reduced activity | Ala63Pro: SULT2A1 allozyme having a proline at amino acid residue 63 in place of alanine (protein, UniProt Q06520 1-285, looked up, variant A63P) Sulfotransferase 2A1: MSDDFLWFEGIAFPTMGFRSETLRKVRDEFVIRDEDVIILTYPKSGTNWLAEILCLMHSKGDPKWIQSVPIWERSPWVESEIGYTALSETESPRLFSSHLPIQLFPKSFFSSKAKVIYLMRNPRDVLVSGYFFWKNMKFIKKPKSWEEYFEWFCQGTVLYGSWFDHIHGWMPMREEKNFLLLSYEELKQDTGRTIEKICQFLGKTLEPEELNLILKNSSFQSMKENKMSNYSLLSVDYVVDKAQLLRKGVSGDWKNHFTVAQAEDFDKLFQEKMADLPRELFPWE | 0.21 ± 0.01 µM | 0.0082 ± 0.00132 µM | 57% | 2.1 | 43% |
| reduced activity | Lys227Glu: SULT2A1 allozyme having a glutamate at amino acid residue 227 in place of a lysine (protein, UniProt Q06520 1-285, looked up, variant K227E) Sulfotransferase 2A1: MSDDFLWFEGIAFPTMGFRSETLRKVRDEFVIRDEDVIILTYPKSGTNWLAEILCLMHSKGDAKWIQSVPIWERSPWVESEIGYTALSETESPRLFSSHLPIQLFPKSFFSSKAKVIYLMRNPRDVLVSGYFFWKNMKFIKKPKSWEEYFEWFCQGTVLYGSWFDHIHGWMPMREEKNFLLLSYEELKQDTGRTIEKICQFLGKTLEPEELNLILKNSSFQSMKENEMSNYSLLSVDYVVDKAQLLRKGVSGDWKNHFTVAQAEDFDKLFQEKMADLPRELFPWE | 0.905 ± 0.053 µM | 0.0102 ± 0.00096 µM | 15% | 7.5 | – |

Reference: patent US7514215B2, “Sulfotransferase SULT2A1 sequence variants” (Mayo Foundation for Medical Education and Research, priority 2001, dated 2009)
